The text below walks through data of PMC9418005 (Nature Microbiology, 2022).

The target in the test is original 2019-nCoV RBD protein (SARS-CoV-2, UniProt P0DTC2). The test can be described thus: Luminex bead-based competitive binding assay. Particulars: both partners purified.

B1: P2G3 LS human IgG1 monoclonal antibody (antibody, V domains shown)
VH: EVQLVESGGGLVQPGRSLRLSCAASGFRFDDYALHWVRQAPEKGLEWVSGISWNSNNIGYAESVKGRFTISRDTAKKSLYLQMNDLRAEDTALYYCVKDRHYDSSGYFVNGFDIWGQGTLVTVSA
VL: DIQLTQSPSFLSASVGDRVTVTCRASQGISSYVAWYQQKAGKAPTLLIYTASTLQSGVPSRFSGSGSGTEFTLTISSLQPEDFATYYCQQLHSYPVTFGQGTRLDIE
B1: the binding result was “binds”.

B2: P5C3 LS monoclonal antibody (antibody, V domains shown)
VH: QMQLVQSGPEVKKPGTSVKVSCKASGFTFTSSAVQWVRQARGQRLEWIGWIVVGSGNTDYAQQFQERVTITRDMSTSTAYMELSSLGSEDTAVYYCAAPNCSGGSCYDGFDLWGQGTMVTVSS
VL: EIVLTQSPGTLSLSPGERATLSCRGSQSVRSSYLGWYQQKPGQAPRLLIYGASSRATGIPDRFSGSGSGTDFTLTISRLEPEDFAVYYCQQYGSSPWTFGQGTKVEIK
As to B2, the binding result is “binds”.
